The record followed here is patent US12517114B2, “Primary gastrointestinal stromal tumor cell culture medium, culture method and application thereof” (PRECEDO PHARMACEUTICALS CO., LTD, priority 2021, dated 2026).

This test deals with primary gastrointestinal stromal tumor cells (GIST-1, GIST-2, GIST-3, GIST-4). Nature of the test: Screening of factors added to the culture medium: cell count after 14 days of culture. The test is classed as cell-based, human. Conditions: for Level of promoting cell proliferation: additive at the concentration of Table 1 in basic medium vs basic medium, 14 days, 2% oxygen, Collagen I coated plate, four patient samples. Here is the method: Rat tail collagen type I (Collagen type I, manufactured by Corning Inc.) was diluted with ultrapure water in a ratio of 1:50 to prepare a collagen diluent. The collagen diluent was added 500 μl/well into a 24-well culture plate to completely cover the bottom of the culture plate wells. After standing in a incubator at 37° C. for 1 hour, the collagen diluent was removed to provide a culture plate coated with collagen.
First, a basic medium was prepared. To a commercial DMEM/F-12 medium, GlutaMAX-I (manufactured by Thermo Fisher […]) was added at a dilution ratio of 1:100, insulin-containing culture additive Insulin-Transferrin-Selenium-Ethanolamine (ITS-X, manufactured by Gibco) was added at a dilution ratio of 1:100, a ROCK kinase inhibitor Y27632 (manufactured by Sigma) was added at a final concentration of 10 µM, and commercial Primocin solution (manufactured by InvivoGen) (commercial product in concentration of 50 mg/ml) was added at a dilution ratio of 1:500, to obtain the basic medium.
Next, different types of additives (Table 1) were added to the basic medium to prepare culture mediums for gastrointestinal stromal tumor cells containing different components. The culture mediums with different components were added at a volume of 500 μl/well to 24-well plates coated with Collagen I, with 3 wells for per medium formulation. The GIST cells (GIST-1) isolated from GIST tissues in Section (1) of this example were inoculated in the 24-well culture plate coated with Collagen I at a cell density of 3×10^4/well, and were cultured under different medium formulations at 37° C., under 5% CO2 concentration and 2% oxygen concentration. The mediums were renewed every 3 days after the start of the culture. After 14 days of culture, cell counts were performed.
The tumor cells isolated from the other three gastrointestinal stromal tumor tissue samples were also cultured and counted in the same manner as above.

B1: fibroblast growth factor 10: receptor tyrosine kinase ligand, medium additive (R&D) (protein, UniProt O15520 38-208, looked up)
Fibroblast growth factor 10: QALGQDMVSPEATNSSSSSFSSPSSAGRHVRSYNHLQGDVRWRKLFSFTKYFLKIEKNGKVSGTKKENCPYSILEITSVEIGVVAVKAINSNYYLAMNKKGKLYGSKEFNNDCKLKERIEENGYNTYASFNWQHNGRQMYVALNGKGAPRRGQKTRRKNTSAHFLPMVVHS
B1: the “Level of promoting cell proliferation” value is given as “+”. The “Effect on proliferation of primary gastrointestinal stromal tumor cells (in words)” value (additive in basic medium, in at least three cases) was “promote the proliferation”.

B2: platelet-derived growth factor BB: receptor tyrosine kinase ligand, medium additive (R&D) (protein, UniProt P01127 82-190, looked up)
Platelet-derived growth …: SLGSLTIAEPAMIAECKTRTEVFEISRRLIDRTNANFLVWPPCVEVQRCSGCCNNRNVQCRPTQVQLRPVQVRKIEIVRKKPIFKKATVTLEDHLACKCETVAAARPVT
B2: the “Level of promoting cell proliferation” value was “+”.
